Measured values taken from paper PMC11615311 (Nature Communications, 2024).

Tests used:
[1] = biological target: UAF1-USP1 complex (purified) (UniProt Q8TAF3 1-677; O94782 1-785); assay: pull-down
[2] = biological target: BAZ1B-SMARCA5 complex (purified) (human | , UniProt Q9UIG0 1-1483; O60264 1-1052); assay: pull-down
Sequence of BAZ1B-SMARCA5 complex (purified) (Q9UIG0 whole entry, chain 1 of 2): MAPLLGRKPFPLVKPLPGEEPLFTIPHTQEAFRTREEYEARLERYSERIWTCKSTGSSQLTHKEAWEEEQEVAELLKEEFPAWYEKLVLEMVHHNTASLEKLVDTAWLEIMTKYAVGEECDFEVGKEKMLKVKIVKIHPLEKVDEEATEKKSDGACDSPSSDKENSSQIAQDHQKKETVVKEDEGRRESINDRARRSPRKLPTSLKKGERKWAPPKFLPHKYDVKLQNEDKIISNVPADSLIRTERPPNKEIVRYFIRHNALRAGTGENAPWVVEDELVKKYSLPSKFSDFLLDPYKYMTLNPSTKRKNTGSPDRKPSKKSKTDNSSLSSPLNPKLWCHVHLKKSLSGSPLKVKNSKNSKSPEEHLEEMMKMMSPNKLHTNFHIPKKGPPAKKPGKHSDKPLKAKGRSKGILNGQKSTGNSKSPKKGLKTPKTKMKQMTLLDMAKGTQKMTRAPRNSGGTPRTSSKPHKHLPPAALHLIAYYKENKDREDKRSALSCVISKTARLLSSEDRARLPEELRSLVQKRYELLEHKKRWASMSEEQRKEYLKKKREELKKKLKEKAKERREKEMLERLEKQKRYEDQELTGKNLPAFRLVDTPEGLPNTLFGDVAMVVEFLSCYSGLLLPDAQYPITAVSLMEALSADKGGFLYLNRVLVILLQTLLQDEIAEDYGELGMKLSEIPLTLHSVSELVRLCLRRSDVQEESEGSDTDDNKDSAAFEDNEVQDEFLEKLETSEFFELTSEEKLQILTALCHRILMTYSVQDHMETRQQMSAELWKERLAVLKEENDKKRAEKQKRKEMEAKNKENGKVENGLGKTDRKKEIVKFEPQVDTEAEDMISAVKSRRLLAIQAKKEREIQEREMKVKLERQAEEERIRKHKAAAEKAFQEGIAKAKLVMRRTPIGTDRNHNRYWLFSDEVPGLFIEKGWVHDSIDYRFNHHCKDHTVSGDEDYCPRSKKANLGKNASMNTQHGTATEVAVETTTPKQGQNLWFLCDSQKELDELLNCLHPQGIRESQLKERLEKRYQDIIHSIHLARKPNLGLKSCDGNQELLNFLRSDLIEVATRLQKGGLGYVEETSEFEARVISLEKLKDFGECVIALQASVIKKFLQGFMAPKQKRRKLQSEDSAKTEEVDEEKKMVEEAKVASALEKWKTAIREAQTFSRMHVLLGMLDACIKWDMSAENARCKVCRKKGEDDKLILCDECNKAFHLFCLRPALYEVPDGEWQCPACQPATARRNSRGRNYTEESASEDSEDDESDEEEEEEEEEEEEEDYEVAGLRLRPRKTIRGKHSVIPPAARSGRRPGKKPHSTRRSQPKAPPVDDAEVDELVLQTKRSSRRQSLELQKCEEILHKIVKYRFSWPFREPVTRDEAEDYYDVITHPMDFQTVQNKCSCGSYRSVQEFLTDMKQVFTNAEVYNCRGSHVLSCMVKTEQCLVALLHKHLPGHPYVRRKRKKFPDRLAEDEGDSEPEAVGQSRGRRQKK
Sequence of BAZ1B-SMARCA5 complex (purified) (O60264 whole entry, chain 2 of 2): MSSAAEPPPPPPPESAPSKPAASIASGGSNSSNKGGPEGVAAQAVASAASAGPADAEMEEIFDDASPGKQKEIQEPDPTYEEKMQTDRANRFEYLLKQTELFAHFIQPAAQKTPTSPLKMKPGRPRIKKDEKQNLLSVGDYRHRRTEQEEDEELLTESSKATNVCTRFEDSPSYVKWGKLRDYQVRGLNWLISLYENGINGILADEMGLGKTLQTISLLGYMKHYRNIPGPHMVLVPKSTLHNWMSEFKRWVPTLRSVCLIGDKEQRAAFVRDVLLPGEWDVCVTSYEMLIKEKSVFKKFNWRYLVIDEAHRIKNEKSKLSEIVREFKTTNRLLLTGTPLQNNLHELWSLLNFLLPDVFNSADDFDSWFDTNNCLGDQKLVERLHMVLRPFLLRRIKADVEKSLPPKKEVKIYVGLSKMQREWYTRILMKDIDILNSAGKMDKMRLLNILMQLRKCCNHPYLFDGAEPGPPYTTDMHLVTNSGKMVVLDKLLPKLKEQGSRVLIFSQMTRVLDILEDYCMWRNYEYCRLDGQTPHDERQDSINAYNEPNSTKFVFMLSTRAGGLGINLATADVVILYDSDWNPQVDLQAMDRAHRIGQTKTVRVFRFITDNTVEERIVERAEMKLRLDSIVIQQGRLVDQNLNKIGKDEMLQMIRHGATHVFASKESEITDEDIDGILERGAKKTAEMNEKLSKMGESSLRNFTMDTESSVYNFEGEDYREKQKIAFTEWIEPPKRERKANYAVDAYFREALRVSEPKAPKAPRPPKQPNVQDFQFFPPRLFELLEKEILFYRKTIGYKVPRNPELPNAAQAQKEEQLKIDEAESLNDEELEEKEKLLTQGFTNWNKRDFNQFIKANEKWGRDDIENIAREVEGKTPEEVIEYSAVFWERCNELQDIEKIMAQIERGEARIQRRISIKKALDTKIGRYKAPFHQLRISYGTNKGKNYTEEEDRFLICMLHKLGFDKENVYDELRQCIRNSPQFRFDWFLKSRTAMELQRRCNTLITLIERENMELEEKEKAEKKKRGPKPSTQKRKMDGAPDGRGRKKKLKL

Sequence of UAF1-USP1 complex (purified) (Q8TAF3 whole entry, chain 1 of 2): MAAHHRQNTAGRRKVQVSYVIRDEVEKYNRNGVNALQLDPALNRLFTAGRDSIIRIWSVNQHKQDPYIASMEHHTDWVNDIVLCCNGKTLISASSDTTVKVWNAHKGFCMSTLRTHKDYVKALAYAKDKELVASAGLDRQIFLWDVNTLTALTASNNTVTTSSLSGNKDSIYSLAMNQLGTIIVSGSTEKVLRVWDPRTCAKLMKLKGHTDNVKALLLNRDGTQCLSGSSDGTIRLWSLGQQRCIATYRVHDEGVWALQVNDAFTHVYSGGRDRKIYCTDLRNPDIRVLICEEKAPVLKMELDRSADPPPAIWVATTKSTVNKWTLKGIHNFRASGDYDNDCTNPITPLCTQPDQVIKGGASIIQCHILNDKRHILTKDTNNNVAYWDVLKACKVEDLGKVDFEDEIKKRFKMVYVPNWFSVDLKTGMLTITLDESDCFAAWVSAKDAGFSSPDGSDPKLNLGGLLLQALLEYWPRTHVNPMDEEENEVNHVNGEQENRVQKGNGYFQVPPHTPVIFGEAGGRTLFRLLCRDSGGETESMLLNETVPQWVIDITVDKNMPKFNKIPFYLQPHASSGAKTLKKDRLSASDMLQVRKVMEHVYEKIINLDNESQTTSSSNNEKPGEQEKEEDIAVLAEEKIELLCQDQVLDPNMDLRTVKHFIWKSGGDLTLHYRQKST
Sequence of UAF1-USP1 complex (purified) (O94782 whole entry, chain 2 of 2): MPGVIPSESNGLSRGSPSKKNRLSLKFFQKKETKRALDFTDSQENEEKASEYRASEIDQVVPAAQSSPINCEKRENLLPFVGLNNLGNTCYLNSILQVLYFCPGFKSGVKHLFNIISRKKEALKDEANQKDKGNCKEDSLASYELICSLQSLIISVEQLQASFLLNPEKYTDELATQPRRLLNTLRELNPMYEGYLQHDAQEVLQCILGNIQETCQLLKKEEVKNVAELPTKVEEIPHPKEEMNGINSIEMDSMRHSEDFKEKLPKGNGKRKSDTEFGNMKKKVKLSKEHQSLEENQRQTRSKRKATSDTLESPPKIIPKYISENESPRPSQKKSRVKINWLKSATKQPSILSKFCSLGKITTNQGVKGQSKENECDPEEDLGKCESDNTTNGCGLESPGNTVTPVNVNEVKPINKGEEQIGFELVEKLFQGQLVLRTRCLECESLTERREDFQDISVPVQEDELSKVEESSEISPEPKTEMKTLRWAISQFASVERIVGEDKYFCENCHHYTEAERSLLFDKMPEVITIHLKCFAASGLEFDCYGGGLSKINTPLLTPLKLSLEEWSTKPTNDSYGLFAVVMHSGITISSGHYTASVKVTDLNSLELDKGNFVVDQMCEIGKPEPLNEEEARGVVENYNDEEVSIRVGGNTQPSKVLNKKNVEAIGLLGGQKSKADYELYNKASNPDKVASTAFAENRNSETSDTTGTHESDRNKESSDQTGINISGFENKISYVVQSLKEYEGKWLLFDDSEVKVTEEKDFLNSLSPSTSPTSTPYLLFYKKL

B1: MBP-tagged ATAD5 (1–603) (domain or fragment, human, UniProt Q96QE3 1-603, looked up)
chain: MVGVLAMAAAAAPPPVKDCEIEPCKKRKKDDDTSTCKTITKYLSPLGKTRDRVFAPPKPSNILDYFRKTSPTNEKTQLGKECKIKSPESVPVDSNKDCTTPLEMFSNVEFKKKRKRVNLSHQLNNIKTENEAPIEISSDDSKEDYSLNNDFVESSTSVLRYKKQVEVLAENIQDTKSQPNTMTSLQNSKKVNPKQGTTKNDFKKLRKRKCRDVVDLSESLPLAEELNLLKKDGKDTKQMENTTSHANSRDNVTEAAQLNDSIITVSYEEFLKSHKENKVEEIPDSTMSICVPSETVDEIVKSGYISESENSEISQQVRFKTVTVLAQVHPIPPKKTGKIPRIFLKQKQFEMENSLSDPENEQTVQKRKSNVVIQEEELELAVLEAGSSEAVKPKCTLEERQQFMKAFRQPASDALKNGVKKSSDKQKDLNEKCLYEVGRDDNSKKIMENSGIQMVSKNGNLQLHTDKGSFLKEKNKKLKKKNKKTLDTGAIPGKNREGNTQKKETTFFLKEKQYQNRMSLRQRKTEFFKSSTLFNNESLVYEDIANDDLLKVSSLCNNNKLSRKTSIPVKDIKLTQSKAESEASLLNVSTPKSTRRSGRISST
[1]
  binding result: binds
[2]
  binding result: binds
